Test results: US20200239541A1 (XYPHOS BIOSCIENCES, published 2020)

Legend:
Test in all cases: ELISA, ligand-Fc coated, biotinylated NKG2D titrated
[1] = target: T1, Y152A mutant NKG2D ectodomain (His-avitag, biotinylated) (human)
T1 construct: also called Y152A non-natural NKG2D receptor; not shown: N-terminal His-avitag
T1 chain: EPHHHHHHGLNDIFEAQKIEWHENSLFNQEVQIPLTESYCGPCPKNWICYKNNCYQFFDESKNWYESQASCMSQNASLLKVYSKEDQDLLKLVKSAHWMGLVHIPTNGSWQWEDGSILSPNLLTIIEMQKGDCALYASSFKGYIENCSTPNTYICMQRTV
Protocol: (§1) In addition to purifying the above 3 Fc-fusion proteins NKG2D ligand-Fc fusion proteins MICB-Fc, ULBP1-Fc, ULBP2-Fc, ULBP3-Fc, and ULBP4-Fc were purchased from R&D Systems, Inc. (Minneapolis, Minn.). Binding of the different α1-α2 domain-Fc fusions to both natural and non-natural NKG2D ectodomain proteins was analyzed using a plate-based ELISA method. All of the natural and non-natural α1-α2 domain-Fc fusions were coated overnight at 4° C. onto separate wells of Maxisorp 96 well plates using a coating concentration of 2 μg/ml in phosphate-buffered saline (PBS). The plates were washed 3-times in PBS/0.05% Tween20 at 20-22° C., and blocked with 0.5% bovine serum albumin for 2 hours. The biotinylated natural and non-natural NKG2D receptor proteins were titrated against the plate-bound NKG2D ligands for 2 hours at 20-22° C., washed 3 times with PBS/0.05% Tween20 at 20-22° C., and the bound NKG2D proteins subsequently detected using a streptavidin-HRP secondary detection step and developed with 1-Step Ultra TMB Elisa.

[2] = target: T2, Y199A mutant NKG2D ectodomain (His-avitag, biotinylated) (human)
T2 construct: not shown: N-terminal His-avitag
T2 chain: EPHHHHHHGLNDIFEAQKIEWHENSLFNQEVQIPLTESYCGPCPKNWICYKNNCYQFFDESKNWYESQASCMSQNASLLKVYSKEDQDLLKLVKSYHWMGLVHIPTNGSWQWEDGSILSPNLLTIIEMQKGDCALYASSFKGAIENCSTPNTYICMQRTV
Protocol: as §1

[3] = target: T3, double Y152A plus Y199A mutant NKG2D ectodomain (His-avitag, biotinylated) (human)
T3 construct: not shown: N-terminal His-avitag
T3 chain: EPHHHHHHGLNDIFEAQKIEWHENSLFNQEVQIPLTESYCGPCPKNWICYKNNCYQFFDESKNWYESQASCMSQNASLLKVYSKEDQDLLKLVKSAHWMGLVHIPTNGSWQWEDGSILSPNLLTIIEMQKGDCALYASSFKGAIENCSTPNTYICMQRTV
Protocol: as §1

Measured: binding result

B1: MICA-Fc (α1-α2-α3-Fc fusion, made in 293 cells) (Fc fusion)
chain: EPHSLRYNLTVLSWDGSVQSGFLTEVHLDGQPFLRCDRQKCRAKPQGQWAEDVLGNKTWDRETRDLTGNGKDLRMTLAHIKDQKEGLHSLQEIRVCEIHEDNSTRSSQHFYYDGELFLSQNLETKEWTMPQSSRAQTLAMNVRNFLKEDAMKTKTHYHAMHADCLQELRRYLKSGVVLRRTVPPMVNVTRSEASEGNITVTCRASGFYPWNITLSWRQDGVSLSHDTQQWGDVLPDGNGTYQTWVATRISQGEEQRFTCYMEHSGNHSTHPVPSGKIEGRMDPKSCDKTHTCPPCPAPELLGGPSVFLFPPKPKDTLMISRTPEVTCVVVDVSHEDPEVKFNWYVDGVEVHNAKTKPREEQYNSTYRVVSVLTVLHQDWLNGKEYKCKVSNKALPAPIEKTISKAKGQPREPQVYTLPPSRDELTKNQVSLTCLVKGF
no binding: all assays above
